The values below are quoted from earlier work in publication PMC4918944.

pKd: −log10 of the molar value.

Usually pKd stands for the negative decadic logarithm of the Kd, by convention in mol/L.

The target in this series is SecY (Bacillus subtilis) (UniProt P16336).
Chain of UniProt P16336 (P16336 whole entry): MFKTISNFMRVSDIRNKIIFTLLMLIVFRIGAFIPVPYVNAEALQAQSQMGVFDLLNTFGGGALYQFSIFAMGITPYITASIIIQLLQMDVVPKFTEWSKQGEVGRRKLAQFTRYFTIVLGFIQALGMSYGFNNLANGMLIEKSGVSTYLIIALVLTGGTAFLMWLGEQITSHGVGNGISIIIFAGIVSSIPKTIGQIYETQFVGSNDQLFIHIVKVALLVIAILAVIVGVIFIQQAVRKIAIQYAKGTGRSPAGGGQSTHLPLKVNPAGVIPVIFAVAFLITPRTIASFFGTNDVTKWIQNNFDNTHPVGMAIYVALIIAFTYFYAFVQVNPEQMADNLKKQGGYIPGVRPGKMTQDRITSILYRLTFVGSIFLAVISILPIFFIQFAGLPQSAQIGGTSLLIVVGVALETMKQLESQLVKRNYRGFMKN

For the substance SecA (from UniProt P28366), the pKd was 8.40.
